B1: TPR t1 (parent)
chain: GACCAAUCUGCCCUCAGAGCUCGAGAACAUCUUCGGAUGCAGAGGAGGCAGGCUUCGGUGGCGCGAUAGCGCCAACGUCCUCAACCUCCAAUGCAUCCCACCACAUGAUGAUGCCUGAAGAGCCUUGGUUUUUUG

This data set covers variants of B1. In words: polymerase ribozyme fitness, log enrichment relative to wild type (log ratio); higher = more active; in vitro selection for triplet polymerase activity. The essentials:
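One round of in vitro selection, in triplicate, was applied to PCR-built, transcribed mutant libraries of each subunit of a heterodimeric triplet polymerase ribozyme. The steps were annealing with a biotinylated primer, partner subunit and triplets, incubation frozen at −7 °C, gel excision of extended constructs, streptavidin-bead capture and RT-PCR. Fitness is the logarithm, base 2, of genotype enrichment over wild-type enrichment from inverse-variance-weighted replicate averages of Illumina-sequenced inputs and outputs, keeping genotypes with ≥10 input reads and ≥1 read per output.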
On to GACCAAUCUGCCCUCAGAGCUCGAGAACAUCUUCGGAUGCAGAGGAGGCAGGCUUCGGUGGCGCGAUAGCGCCAACGUCCUCAACCUCCAAUGCAUCCCACCUCAGGAUGAUGCCUGAAGAGCCUUGGUUUUUUG [A103U U106G], for which the “polymerase ribozyme fitness (log ratio)” value is -4.14.

For the variant GACCAAUCUGCCCUCAGAGCUCGAGAACAUCUUCGGAUGCAGAGGAGGCAGGCUUCGGUGGCGCGAUAGCGCCAACGUCCUCAACCUCCAAUGCAUCCCACCAUAUGAUGAGGCCUGAAGAGCCUUGGUUUUUUG [C104U U112G], the “polymerase ribozyme fitness (log ratio)” value was 0.761. On to GACCAAUCUGCCCUCAGAGCUCGAGAACAUCUUCGGAUGCAGAGGAGGCAGGCUUCGGUGGCGCGAUAGCGCCAACGUCCUCAACCUCCAAUGCAUCCCACCACAGGAUGAUGCCUGAGGAGCCUUGGUUUUUUG [U106G A119G], for which the “polymerase ribozyme fitness (log ratio)” value was 0.3. GACCAAUCUGCCCUCAGAGCUCGAGAACAUCUUCGGAUGCAGAGGAGGCAGGCUUCGGUGGCGCGAUAGCGCCAACGUCCUCAACCUCCAAUGCAUCCCACCAUAUGAUGAUGCCCGAAGAGCCUUGGUUUUUUG [C104U U116C]: the “polymerase ribozyme fitness (log ratio)” value is -0.608. With GACCAAUCUGCCCUCAGAGCUCGAGAACAUCUUCGGAUGCAGAGGAGGCAGGCUUCGGUGGCGCGAUAGCGCCAACGUCCUCAACCUCCAAUGCAUCCCACCACAGGAUGAUGGCUGAAGAGCCUUGGUUUUUUG [U106G C114G] the figure was -3.54. GACCAAUCUGCCCUCAGAGCUCGAGAACAUCUUCGGAUGCAGAGGAGGCAGGCUUCGGUGGCGCGAUAGCGCCAACGUCCUCAACCUCCAAUGCAUCCCACCCCAUGAUGAUGCCUGAAGAGCCUUGGUUUAUUG [A103C U132A]: the “polymerase ribozyme fitness (log ratio)” value is -4.12. The value for GACCAAUCUGCCCUCAGAGCUCGAGAACAUCUUCGGAUGCAGAGGAGGCAGGCUUCGGUGGCGCGAUAGCGCCAACGUCCUCAACCUCCAAUGCAUCCCACCCCAUAAUGAGACCUGAAGAGCCUUGGUUUUUUG [A103C G107A U112G G113A] was -6.72. Regarding GACCAAUCUGCCCUCAGAGCUCGAGAACAUCUUCGGAUGCAGAGGAGGCAGGCUUCGGUGGCGCGAUAGCGCCAACGUCCUCAACCUCCAAUGCAUCCCACCAUAUGAUGAUGCGUGAAGAGCCUUGGUUUUUUG [C104U C115G], the “polymerase ribozyme fitness (log ratio)” value is -1.22. GACCAAUCUGCCCUCAGAGCUCGAGAACAUCUUCGGAUGCAGAGGAGGCAGGCUUCGGUGGCGCGAUAGCGCCAACGUCCUCAACCUCCAAUGCAUCCCACCAUAUGAUGAUGCAUGAAGAGCCUUGGUUUUUUG [C104U C115A]: the “polymerase ribozyme fitness (log ratio)” value came to 0.0102. On to GACCAAUCUGCCCUCAGAGCUCGAGAACAUCUUCGGAUGCAGAGGAGGCAGGCUUCGGUGGCGCGAUAGCGCCAACGUCCUCAACCUCCAAUGCAUCCCACCAAAUGAUGAAGCCUGAAGAGCCUUGGUUUUUUG [C104A U112A], for which the “polymerase ribozyme fitness (log ratio)” value is 0.162. Consider GACCAAUCUGCCCUCAGAGCUCGAGAACAUCUUCGGAUGCAGAGGAGGCAGGCUUCGGUGGCGCGAUAGCGCCAACGUCCUCAACCUCCAAUGCAUCCCACUACAUGAUGAUGCCUGAAGGGCCUUGGUUUUUUG [C102U A121G], for which the “polymerase ribozyme fitness (log ratio)” value was determined as 0.0036.

Consider GACCAAUCUGCCCUCAGAGCUCGAGAACAUCUUCGGAUGCAGAGGAGGCAGGCUUCGGUGGCGCGAUAGCGCCAACGUCCUCAACCUCCAAUGCAUCCCACCAGAUGAUGAUCCCUGAAGAGCCUUGGUUUUUUG [C104G G113C], for which the “polymerase ribozyme fitness (log ratio)” value is -6.7.

Take GACCAAUCUGCCCUCAGAGCUCGAGAACAUCUUCGGAUGCAGAGGAGGCAGGCUUCGGUGGCGCGAUAGCGCCAACGUCCUCAACCUCCAAUGCAUCCCACCAUAUGAUGAUGCCUGAACAGCCUUGGUUUUUUG [C104U G120C]: the “polymerase ribozyme fitness (log ratio)” value worked out at 0.802.

On to GACCAAUCUGCCCUCAGAGCUCGAGAACAUCUUCGGAUGCAGAGGAGGCAGGCUUCGGUGGCGCGAUAGCGCCAACGUCCUCAACCUCCAAUGCAUCCCACCCCAUGAUGAUGCCUGAAGAGAAUUGGUUUUUUG [A103C C123A C124A], for which the “polymerase ribozyme fitness (log ratio)” value is -3.52. With GACCAAUCUGCCCUCAGAGCUCGAGAACAUCUUCGGAUGCAGAGGAGGCAGGCUUCGGUGGCGCGAUAGCGCCAACGUCCUCAACCUCCAAUGCAUCCCACCACCUGAUGAUGACUGAAGAGCCUUGGUUUUUUG [A105C C114A] the figure was -3.98; with GACCAAUCUGCCCUCAGAGCUCGAGAACAUCUUCGGAUGCAGAGGAGGCAGGCUUCGGUGGCGCGAUAGCGCCAACGUCCUCAACCUCCAAUGCAUCCCACCUCAUGAUGAUACCUGAAGAGCCUUGGUUUUUUG [A103U G113A], -3.81. With GACCAAUCUGCCCUCAGAGCUCGAGAACAUCUUCGGAUGCAGAGGAGGCAGGCUUCGGUGGCGCGAUAGCGCCAACGUCCUCAACCUCCAAUGCAUCCCACCACCUGAUGAUGCCUGAAGAGCCGUGGUUUUUUG [A105C U125G] the figure was -3.17; with GACCAAUCUGCCCUCAGAGCUCGAGAACAUCUUCGGAUGCAGAGGAGGCAGGCUUCGGUGGCGCGAUAGCGCCAACGUCCUCAACCUCCAAUGCAUCCCACCUCAUGAUGAUGCCUGAAGAGCCUUGGUUUAUUG [A103U U132A], -5.02. For the variant GACCAAUCUGCCCUCAGAGCUCGAGAACAUCUUCGGAUGCAGAGGAGGCAGGCUUCGGUGGCGCGAUAGCGCCAACGUCCUCAACCUCCAAUGCAUCCCACCCAAUGAUGAUGCCUGAAGAGCCUUGGUUUUUUG [A103C C104A], the “polymerase ribozyme fitness (log ratio)” value was -2.67. The value for GACCAAUCUGCCCUCAGAGCUCGAGAACAUCUUCGGAUGCAGAGGAGGCAGGCUUCGGUGGCGCGAUAGCGCCAACGUCCUCAACCUCCAAUGCAUCCCACCACUUGAUGAUGCCUGAAGAGCUUUGGUUUUUUG [A105U C124U] was -0.354; that for GACCAAUCUGCCCUCAGAGCUCGAGAACAUCUUCGGAUGCAGAGGAGGCAGGCUUCGGUGGCGCGAUAGCGCCAACGUCCUCAACCUCCAAUGCAUCCCACCAUAUGAUGAUCCCUGAAGAGACUUGGUUUUUUG [C104U G113C C123A] was -3.61.

These data come from the RNAGym collection of RNA variant scans (doi:10.1073/pnas.2313332121).
